# According to patent publication US10077295B2, “Glycoproteins having lipid mobilizing properties and therapeutic uses thereof” (Aston University, priority 2010, dated 2018):
# B1: ZAG: recombinant full length human zinc-α2-glycoprotein (SEQ ID NO: 1) secreted by transfected HEK293F cells; lipid mobilizing factor (protein, listed as Homo sapiens)
# chain: QENQDGRYSLTYIYTGLSKHVEDVPAFQALGSLNDLQFFRYNSKDRKSQPMGLWRQVEGMEDWKEDSQLQKAREDMETLKDIVEYYNDSNGSHVLQGRFGCEIENNRSSGAFWKYYYDGKDYIEFNKEIPAWVPFDPAAQITKQKWEAEPVYVQRAKAYLEEECPATLRKYLKYSKNILDRQDPPSVVVTSHQAPGEKKKLKCLAYDFYPGKIDVHWTRAGQVQEPELRGDVLHNGNGTYQSWVVVAVPPQDTAPYSCHVQHSSLAQPLVVPWEAS
# Legend:
# Format in all cases: in vivo, mouse
# ob/ob mice [1] = assay: ob/ob mice treated with ZAG, 21 day study
# Experimental: FIG. 7A is a graphical diagram showing weight loss of the ob/ob mice during the 21 day study. ZAG was injected at days 1, 4, 5, 8, 13, 16, 18, and 19; PBS was injected at the same time points.
# (§1) Animals—Mice. Homozygous obese (ob/ob) mice from the colony maintained at Aston University were used in the present study. The origin and characteristics of Aston ob/ob mice have been previously described. Male mice (20-21 weeks old, weight 90-100 g) were grouped into three per cage in an air conditioned room at 22±2° C. with a 12 h-light:12 h-dark cycle and fed a rat and mouse breeding diet (Special Diet Services, Witham, UK) and tap water ad libitum. They were administered ZAG (35 μg) in PBS (100 μl) b.d. by i.v. administration and body weight and food and water intake were monitored daily. Control mice received PBS alone. Body temperature was measured daily by the use of a rectal thermometer (RS Components, Northants, UK). All animal experiments were carried out in accordance with the U.K. Animals (Scientific Procedures) Act 1986.
# After 21 days, the plasma metabolite levels in the ob/ob mice were observed (Table 2), with monitored parameters shown in Table 3. […] It was noted that there is much more insulin in the pancreas in ZAG treated animals showing the drop in plasma insulin, which is not due to lower insulin production (e.g., as would happen with a toxin to pancreatic beta cells), but rather due to the fact that less insulin is needed to control blood glucose in the ZAG treated animals.
# ob/ob mice [2] = assay: ob/ob mice administered ZAG i.v. for 5 days (120 h): body weight, temperature, plasma metabolites, tissue weights
# Experimental: as §1
# Serum Metabolite Determinations. Non-esterified fatty acids (NEFA) were determined using a Wako-ASC-ACOD kit (Wako Chemical GmbH, Neuss, Germany). Triglycerides were determined using a Triglyceride kit (Sigma Chemical Co., Poole, United Kingdom) and 3-hydroxybutyrate by a quantitative enzymatic determination kit (Sigma). Glucose was measured using a glucose analyser (Beckman, Irvine, Calif.) and glycerol was determined enzymatically using the method of Wieland as described in “Methods of Enzymatic Analysis” (Ed. Bergmeyer, H. U.) Vol. 3, pp1404-1409, published by Academic Press, London (1974).
# ob/ob mice [3] = assay: Body weight loss by route of administration of ZAG in ob/ob mice; settings: for Body weight loss / % of i.v. loss over the same time: 50 ug/day
# Experimental: The goal of the study was to compare the efficacy of ZAG via various routes of administration. Mice were orally administered 50 μg ZAG or PBS (control). The results of are shown in FIGS. 31, 32, 33 (8 day oral ZAG study); 36, 37, 40 (8 day oral ZAG plus propranolol study); and FIGS. 47, 48 (oral ZAG gavage study). As shown in these repeated studies, ZAG was unexpectedly shown to be effective in bringing about weight change when administered orally by simply mixing low doses of ZAG in the drinking water of mice without requiring systemic absorption of administered ZAG. Typical oral dosing of proteins, such as insulin, can require up to 10× (or mega dosing) the intravenous dose to achieve the same level of efficacy and such limited efficacy requires systemic absorption of such proteins.
# ob/ob mice [4] = assay: as above; settings: intraveneous, 50 ug/day
# ob/ob mice [5] = assay: Interval / long-term administration of ZAG in ob/ob mice (pilot study)
# Experimental: While not wanting to be limited by theory, it may be that the subjects are receiving too much ZAG or that there is receptor desensitization as is seen with TNF. A pilot study was performed with 2 mice in each group to determine optimal scheduling of ZAG delivery.
# ob/ob mice [6] = assay: Glucose tolerance test in ob/ob mice after 3 days of ZAG
# From the text: FIG. 2A is a graphical diagram showing glucose tolerance of ob/ob mice treated with ZAG. Plasma glucose levels in ob/ob mice in the fed state either treated with ZAG (▪) or PBS (♦) for 3 days after […]. p<0.001 from PBS. Blood samples were removed from the tail vein at intervals after glucose administration and used for the measurement of glucose and insulin.
# FIG. 2B is a graphical diagram showing plasma insulin levels in ob/ob mice treated with ZAG after oral administration of glucose (1 g/kg). p<0.001 from PBS.
# To investigate this, a glucose tolerance test was performed, on fed animals, after 3 days of ZAG administration (FIG. 2A). […] The glucose uptake in gastrocnemius muscle of ZAG treated mice was greater than the response to insulin in non-treated animals.
molecule,measurement,setting,value
B1,weight of the gastrocnemius muscles,ob/ob mice [1]; ob/ob mice,0.7 ± 0.1 g
same,weight of brown adipose tissue,ob/ob mice [1]; ob/ob mice (FIG. 7),0.52 ± 0.08 g
same,BAT weight,"ob/ob mice [1]; ob/ob mice, Day 21",0.41 ± 0.35 g
same,Gastrocnemius weight,"ob/ob mice [1]; ob/ob mice, Day 21",0.39 ± 0.12 g
same,Glucose (plasma),"ob/ob mice [1]; ob/ob mice, Day 21",15.2 ± 2.1 mmol/L
same,Glycerol (plasma),"ob/ob mice [1]; ob/ob mice, Day 21",450 ± 36.2
same,Insulin (plasma),"ob/ob mice [1]; ob/ob mice, Day 21",28.5 ± 0.34 ng/mL
same,Insulin Pancreas,"ob/ob mice [1]; ob/ob mice, Day 21",14.5 ± 2.5 pg/g pancerase
same,NEFA (plasma),"ob/ob mice [1]; ob/ob mice, Day 21",0.22 ± 0.06 mEq/l
same,Soleus weight,"ob/ob mice [1]; ob/ob mice, Day 21",0.18 ± 0.07 g
same,Triglycerides (plasma),"ob/ob mice [1]; ob/ob mice, Day 21",0.89 ± 0.08 mmol/L
same,blood glucose,"ob/ob mice [1]; ob/ob mice, Day 21",15.2 mM
same,Finish weight,"ob/ob mice [1]; ob/ob mice, Day 21, in g",83.95 ± 2.2
same,peak body temperature,"ob/ob mice [1]; ob/ob mice, just before maximum weight loss",38.1 °C
same,oxygen uptake by BAT,ob/ob mice [2]; ob/ob mice after ZAG administration,three-fold increase
same,BAT weight,ob/ob mice [2]; ob/ob mice treated for 120 h,0.73 ± 0.12 p < 0.01 g
same,Gastrocnemius weight,ob/ob mice [2]; ob/ob mice treated for 120 h,1.12 ± 0.14 p < 0.01 g
same,Glucose (plasma),ob/ob mice [2]; ob/ob mice treated for 120 h,20.3 ± 0.8 p < 0.01 mmol/L
same,Glycerol (plasma),ob/ob mice [2]; ob/ob mice treated for 120 h,429 + 36 p < 0.001 μmol/L
same,Insulin (plasma),ob/ob mice [2]; ob/ob mice treated for 120 h,26.3 ± 0.52 p < 0.001 ng/mL
same,Insulin Pancreas,ob/ob mice [2]; ob/ob mice treated for 120 h,16.3 ± 3.1 p = 0.0042 pg/g pancerase
same,NEFA (plasma),ob/ob mice [2]; ob/ob mice treated for 120 h,0.23 ± 0.05 p < 0.001 mEq/L
same,Soleus weight,ob/ob mice [2]; ob/ob mice treated for 120 h,0.80 ± 0.09 p < 0.01 g
same,TG (plasma),ob/ob mice [2]; ob/ob mice treated for 120 h,0.9 ± 0.1 p < 0.05 mmol/L
same,adverse effects after administration,"ob/ob mice [2]; ob/ob mice, 35 μg i.v.",No adverse effects were observed
same,decrease in plasma insulin levels,"ob/ob mice [2]; ob/ob mice, 5 days",36%
same,blood glucose,"ob/ob mice [2]; ob/ob mice, Day 5 (value before the further drop)",2.03 mM
same,rise of body temperature,"ob/ob mice [2]; ob/ob mice, after 4 days of ZAG",0.4 °C
same,weight difference between ZAG and PBS groups,"ob/ob mice [2]; ob/ob mice, after 5 days",3.5 g
same,"efficacy of lowering of urinary glucose, oral vs i.v.",ob/ob mice [3]; after 5 days of dosing,equally as good
same,Body weight loss,"ob/ob mice [3]; intraveneous, 20 Days",−9.0%
same,Body weight loss,"ob/ob mice [3]; oral-casein (casein with ZAG in drinking water), 8 Days",−3.4%
same,% of i.v. loss over the same time,"ob/ob mice [3]; oral-casein, 8 Days",57%
same,% of i.v. loss over the same time,"ob/ob mice [3]; oral-casein, 20 Days",76%
same,Body weight loss,"ob/ob mice [3]; oral-casein, 20 Days",−6.8%
same,Body weight loss,"ob/ob mice [3]; oral-gavage (directly into the stomach), 8 Days",−2.3%
same,% of i.v. loss over the same time,"ob/ob mice [3]; oral-gavage, 8 Days",38%
same,Body weight loss,"ob/ob mice [3]; oral-water (in the drinking water), 8 Days",−4.3%
same,% of i.v. loss over the same time,"ob/ob mice [3]; oral-water, 8 Days",72%
same,% of i.v. loss over the same time,"ob/ob mice [3]; oral-water, 20 Days",68%
same,Body weight loss,"ob/ob mice [3]; oral-water, 20 Days",−6.1%
same,weight-loss efficacy of oral dosing relative to intravenous administration,ob/ob mice [3]; same dose,≤ 75%
same,% of i.v. loss over the same time,ob/ob mice [4]; 8 Days,100%
same,% of i.v. loss over the same time,ob/ob mice [4]; 20 Days,100%
same,Body weight loss,"ob/ob mice [4]; 70 g ob/ob mice, 8 Days",−6.0%
same,weight loss,"ob/ob mice [5]; from a 90 g mouse, in about 3 weeks",8 to 10 g
same,outcome of long-term daily administration,ob/ob mice [5]; ob/ob mice,cessation of weight loss
same,blood glucose levels in glucose tolerance test,"ob/ob mice [6]; fed ob/ob mice, after 3 days of ZAG",only a small rise
same,plasma insulin levels in glucose tolerance test,"ob/ob mice [6]; ob/ob mice, 60 min of observation",significantly lower
